Results as given in patent publication US7049080B2, “Process for detecting serine/threonine kinase activity” (priority 2000, dated 2006).
Non-standard residues stand in square brackets, D forms with d. pY = N[C@@H](Cc1ccc(OP(=O)(O)O)cc1)C(=O)O; pT = C[C@@H](OP(=O)(O)O)[C@H](N)C(=O)O

What was measured:
[1] = system: T1, P1° peptide, H-Lys-Phe-Met-Met-Thr-Pro-pTyr-Val-Val-Thr-Arg-NH2
T1 sequence: KFMMTPYVVTR

NEB antibody #9251 = experiment: FP controls conjugate/high/low (Example 7); type: binding, rabbit; details: Low: P1*°-Tamra + NEB ab (1:20) + competitor 200 nM, 0 h
Description: The following reagents have been used (the compositions of the buffers and specifications of the reagents are explained in more detail later on): Hepes buffer, MgCl2 10 mM, ATP 20 μM, P1^∘ peptide at 100 μM, NEB antibody # 9251 1:20 dilution, P1*^∘-TAMRA 5 nM, Pluronic 0.1%, MKK7 at 0, 0.005, 0.02, 0.08, 0.2, 0.5 and 2 μM.
After addition of MKK7, the enzyme reactions were performed in Nunc chambers at RT. The samples were continuously measured at different time points by Fluorescence polarization.
Bis-phosphorylated peptide P1*^∘ can be used as competitor, resulting in free labelled ligand called “low” or “negative control”. This can be seen in the following table 1.

[2] = molecular target: Anti active SAPK1/JNK-specific polyclonal antibody, New England Biolabs NEB #9251; experiment: fluorescence polarization, 200 nM P1*° competing with TAMRA-P1*° (5 nM) for antibody 1:20, 0 h
[3] = molecular target: Anti active SAPK1/JNK-specific polyclonal antibody, New England Biolabs NEB #9251; experiment: fluorescence correlation spectroscopy, competition with TAMRA-P1*° (5 nM) for the NEB antibody (1:20)
[4] = molecular target: Anti active SAPK1/JNK-specific polyclonal antibody, New England Biolabs NEB #9251; experiment: fluorescence polarization, competition with TAMRA-P1*° (5 nM) for NEB #9251 (1:20) in presence of 100 µM P1° substrate peptide, 20 µM ATP, 10 mM MgCl2
[5] = molecular target: Anti active SAPK1/JNK-specific polyclonal antibody, New England Biolabs NEB #9251; experiment: competition with TAMRA-P1*° (5 nM) for the antibody, competitor up to 1 µM (FIG. 3)

MKK7 kinase (Upstate Biotech cat. no. 14-366)
FP, 100 µM P1°, MKK7 0.005 µM, 0 h [1]: 132 mP
FP, 100 µM P1°, MKK7 0.005 µM, 0.5 h [1]: 137 mP
FP, 100 µM P1°, MKK7 0.005 µM, 1 h [1]: 137 mP
FP, 100 µM P1°, MKK7 0.005 µM, 1.5 h [1]: 137 mP
FP, 100 µM P1°, MKK7 0.005 µM, 3 h [1]: 138 mP
FP, 100 µM P1°, MKK7 0.02 µM, 0 h [1]: 135 mP
FP, 100 µM P1°, MKK7 0.02 µM, 0.5 h [1]: 140 mP
FP, 100 µM P1°, MKK7 0.02 µM, 1 h [1]: 141 mP
FP, 100 µM P1°, MKK7 0.02 µM, 1.5 h [1]: 140 mP
FP, 100 µM P1°, MKK7 0.02 µM, 3 h [1]: 140 mP
FP, 100 µM P1°, MKK7 0.08 µM, 0 h [1]: 134 mP
FP, 100 µM P1°, MKK7 0.08 µM, 0.5 h [1]: 138 mP
FP, 100 µM P1°, MKK7 0.08 µM, 1 h [1]: 136 mP
FP, 100 µM P1°, MKK7 0.08 µM, 1.5 h [1]: 128 mP
FP, 100 µM P1°, MKK7 0.08 µM, 3 h [1]: 115 mP
FP, 100 µM P1°, MKK7 0.2 µM, 0 h [1]: 135 mP
FP, 100 µM P1°, MKK7 0.2 µM, 0.5 h [1]: 132 mP
FP, 100 µM P1°, MKK7 0.2 µM, 1 h [1]: 122 mP
FP, 100 µM P1°, MKK7 0.2 µM, 1.5 h [1]: 114 mP
FP, 100 µM P1°, MKK7 0.2 µM, 3 h [1]: 105 mP
FP, 100 µM P1°, MKK7 0.5 µM, 0 h [1]: 135 mP
FP, 100 µM P1°, MKK7 0.5 µM, 0.5 h [1]: 126 mP
FP, 100 µM P1°, MKK7 0.5 µM, 1 h [1]: 115 mP
FP, 100 µM P1°, MKK7 0.5 µM, 1.5 h [1]: 109 mP
FP, 100 µM P1°, MKK7 0.5 µM, 3 h [1]: 107 mP
FP, 100 µM P1°, MKK7 1.0 µM, 0 h [1]: 136 mP
FP, 100 µM P1°, MKK7 1.0 µM, 0.5 h [1]: 120 mP
FP, 100 µM P1°, MKK7 1.0 µM, 1 h [1]: 112 mP
FP, 100 µM P1°, MKK7 1.0 µM, 1.5 h [1]: 105 mP
FP, 100 µM P1°, MKK7 1.0 µM, 3 h [1]: 108 mP
FP, NEB ab in STOP sol., MKK7 0.04 µM, 0 h [1]: 147 mP
FP, NEB ab in STOP sol., MKK7 0.04 µM, 0.5 h [1]: 142 mP
FP, NEB ab in STOP sol., MKK7 0.04 µM, 1 h [1]: 140 mP
FP, NEB ab in STOP sol., MKK7 0.04 µM, 1.5 h [1]: 136 mP
FP, NEB ab in STOP sol., MKK7 0.04 µM, 2 h [1]: 134 mP
FP, NEB ab in STOP sol., MKK7 0.04 µM, 3 h [1]: 138 mP
FP, NEB ab in STOP sol., MKK7 0.08 µM, 0 h [1]: 143 mP
FP, NEB ab in STOP sol., MKK7 0.08 µM, 0.5 h [1]: 139 mP
FP, NEB ab in STOP sol., MKK7 0.08 µM, 1 h [1]: 134 mP
FP, NEB ab in STOP sol., MKK7 0.08 µM, 1.5 h [1]: 122 mP
FP, NEB ab in STOP sol., MKK7 0.08 µM, 2 h [1]: 116 mP
FP, NEB ab in STOP sol., MKK7 0.08 µM, 3 h [1]: 125 mP
FP, NEB ab in STOP sol., MKK7 0.2 µM, 0 h [1]: 148 mP
FP, NEB ab in STOP sol., MKK7 0.2 µM, 0.5 h [1]: 130 mP
FP, NEB ab in STOP sol., MKK7 0.2 µM, 1 h [1]: 114 mP
FP, NEB ab in STOP sol., MKK7 0.2 µM, 1.5 h [1]: 103 mP
FP, NEB ab in STOP sol., MKK7 0.2 µM, 2 h [1]: 99.2 mP
FP, NEB ab in STOP sol., MKK7 0.2 µM, 3 h [1]: 119 mP
FP, NEB ab in reaction, MKK7 0.04 µM, 0 h [1]: 150 mP
FP, NEB ab in reaction, MKK7 0.04 µM, 0.5 h [1]: 128 mP
FP, NEB ab in reaction, MKK7 0.04 µM, 1 h [1]: 126 mP
FP, NEB ab in reaction, MKK7 0.04 µM, 1.5 h [1]: 113 mP
FP, NEB ab in reaction, MKK7 0.04 µM, 2 h [1]: 110 mP
FP, NEB ab in reaction, MKK7 0.04 µM, 3 h [1]: 78.6 mP
FP, NEB ab in reaction, MKK7 0.08 µM, 0 h [1]: 138 mP
FP, NEB ab in reaction, MKK7 0.08 µM, 0.5 h [1]: 122 mP
FP, NEB ab in reaction, MKK7 0.08 µM, 1 h [1]: 106 mP
FP, NEB ab in reaction, MKK7 0.08 µM, 1.5 h [1]: 86.4 mP
FP, NEB ab in reaction, MKK7 0.08 µM, 2 h [1]: 84.5 mP
FP, NEB ab in reaction, MKK7 0.08 µM, 3 h [1]: 65 mP
FP, NEB ab in reaction, MKK7 0.2 µM, 0 h [1]: 137 mP
FP, NEB ab in reaction, MKK7 0.2 µM, 0.5 h [1]: 101 mP
FP, NEB ab in reaction, MKK7 0.2 µM, 1 h [1]: 83.1 mP
FP, NEB ab in reaction, MKK7 0.2 µM, 1.5 h [1]: 78.1 mP
FP, NEB ab in reaction, MKK7 0.2 µM, 2 h [1]: 72.1 mP
FP, NEB ab in reaction, MKK7 0.2 µM, 3 h [1]: 59.4 mP
Km for P1° peptide (read-out: fluorescence polarization) [1]: Km=94 nM±59 nM
phosphorylation of P1° peptide substrate by MKK7 kinase [1]: Efficient phosphorylation of P1° peptide is measured

H-Lys-Phe-Met-Met-pThr-Pro-pTyr-Val-Val-Thr-Arg-NH2 (H-KFMM[pT]P[pY]VVTR-NH2; SMILES CSCC[C@H](NC(=O)[C@H](Cc1ccccc1)NC(=O)[C@@H](N)CCCCN)C(=O)N[C@@H](CCSC)C(=O)N[C@H](C(=O)N1CCC[C@H]1C(=O)N[C@@H](Cc1ccc(OP(=O)(O)O)cc1)C(=O)N[C@H](C(=O)N[C@H](C(=O)N[C@H](C(=O)N[C@@H](CCCNC(=N)N)C(N)=O)[C@@H](C)O)C(C)C)C(C)C)[C@@H](C)OP(=O)(O)O) [P1*^∘]
Fluorescence Polarization (NEB antibody #9251): 84.5 mP

B1: P1*° peptide, H-Lys-Phe-Met-Met-pThr-Pro-pTyr-Val-Val-Thr-Arg-NH2 (peptide)
peptide: H-KFMM[pT]P[pY]VVTR-NH2
SMILES: CSCC[C@H](NC(=O)[C@H](Cc1ccccc1)NC(=O)[C@@H](N)CCCCN)C(=O)N[C@@H](CCSC)C(=O)N[C@H](C(=O)N1CCC[C@H]1C(=O)N[C@@H](Cc1ccc(OP(=O)(O)O)cc1)C(=O)N[C@H](C(=O)N[C@H](C(=O)N[C@H](C(=O)N[C@@H](CCCNC(=N)N)C(N)=O)[C@@H](C)O)C(C)C)C(C)C)[C@@H](C)OP(=O)(O)O
fluorescence polarization [2]: 84.5 mP
IC50 [3]: 5 nM
IC50 [4]: 35.1 nM

B2: P1° peptide, H-Lys-Phe-Met-Met-Thr-Pro-pTyr-Val-Val-Thr-Arg-NH2 (peptide)
peptide: H-KFMMTP[pY]VVTR-NH2
SMILES: CSCC[C@H](NC(=O)[C@H](Cc1ccccc1)NC(=O)[C@@H](N)CCCCN)C(=O)N[C@@H](CCSC)C(=O)N[C@H](C(=O)N1CCC[C@H]1C(=O)N[C@@H](Cc1ccc(OP(=O)(O)O)cc1)C(=O)N[C@H](C(=O)N[C@H](C(=O)N[C@H](C(=O)N[C@@H](CCCNC(=N)N)C(N)=O)[C@@H](C)O)C(C)C)C(C)C)[C@@H](C)O
percent of the bound ligand displaced [5]: < 50%

B3: P1* peptide, H-Lys-Phe-Met-Met-pThr-Pro-Tyr-Val-Val-Thr-Arg-NH2 (peptide)
peptide: H-KFMM[pT]PYVVTR-NH2
SMILES: CSCC[C@H](NC(=O)[C@H](Cc1ccccc1)NC(=O)[C@@H](N)CCCCN)C(=O)N[C@@H](CCSC)C(=O)N[C@H](C(=O)N1CCC[C@H]1C(=O)N[C@@H](Cc1ccc(O)cc1)C(=O)N[C@H](C(=O)N[C@H](C(=O)N[C@H](C(=O)N[C@@H](CCCNC(=N)N)C(N)=O)[C@@H](C)O)C(C)C)C(C)C)[C@@H](C)OP(=O)(O)O
percent of the bound ligand displaced [5]: < 50%
